Data on five molecules can be found in patent US20090286723A1.

One may read the IC50 as the concentration needed to halve the response being measured. A low value points to higher potency.

The target of one assay is calcitonin receptor. Nature of the assay: cell-based or functional assay.
Assay [1] addresses T1, neuropeptide Y2 receptor (SK-N-BE cell membranes), P49146.
T1 chain: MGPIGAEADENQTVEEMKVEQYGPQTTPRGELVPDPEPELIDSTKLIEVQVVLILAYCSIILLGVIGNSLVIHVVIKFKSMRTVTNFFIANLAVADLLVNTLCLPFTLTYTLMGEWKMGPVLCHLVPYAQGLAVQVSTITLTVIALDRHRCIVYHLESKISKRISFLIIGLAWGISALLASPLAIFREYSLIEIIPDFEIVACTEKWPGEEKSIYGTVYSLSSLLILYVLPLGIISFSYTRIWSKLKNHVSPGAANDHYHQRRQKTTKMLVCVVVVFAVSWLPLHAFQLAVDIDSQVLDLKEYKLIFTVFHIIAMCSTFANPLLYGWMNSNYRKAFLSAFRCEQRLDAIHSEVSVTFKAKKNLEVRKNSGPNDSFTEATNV
The experiment in a line: [125I]-human PYY displacement, SK-N-BE membranes.

Assay [2] concerns the target GLP-1/GIP/CT (receptors read by the GLP-1/GIP/CT cyclase assay). The experiment in a line: cell-based or functional assay.
Assay [3] has as its target T2, CGRP receptors (SK-N-MC cell membranes), Q16602.
T2 chain 1: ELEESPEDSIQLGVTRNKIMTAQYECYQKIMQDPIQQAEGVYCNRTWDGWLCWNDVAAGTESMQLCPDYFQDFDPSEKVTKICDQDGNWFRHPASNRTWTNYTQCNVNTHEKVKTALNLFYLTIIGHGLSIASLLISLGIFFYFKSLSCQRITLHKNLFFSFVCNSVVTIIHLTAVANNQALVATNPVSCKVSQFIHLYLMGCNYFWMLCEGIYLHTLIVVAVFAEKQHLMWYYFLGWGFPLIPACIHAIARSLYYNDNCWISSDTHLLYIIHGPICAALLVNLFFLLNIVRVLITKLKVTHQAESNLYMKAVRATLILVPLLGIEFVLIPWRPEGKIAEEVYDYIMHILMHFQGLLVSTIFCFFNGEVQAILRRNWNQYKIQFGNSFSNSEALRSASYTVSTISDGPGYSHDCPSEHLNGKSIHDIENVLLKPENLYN
T2 chain 2: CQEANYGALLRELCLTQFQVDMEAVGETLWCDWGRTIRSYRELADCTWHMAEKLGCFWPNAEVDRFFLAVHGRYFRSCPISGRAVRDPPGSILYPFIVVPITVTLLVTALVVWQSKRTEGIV
Nature of the assay: 125I-hCGRP displacement, SK-N-MC membranes.

The target of assay [4] is T3, amylin receptors (rat nucleus accumbens membranes) (rat).
T3 chain 1: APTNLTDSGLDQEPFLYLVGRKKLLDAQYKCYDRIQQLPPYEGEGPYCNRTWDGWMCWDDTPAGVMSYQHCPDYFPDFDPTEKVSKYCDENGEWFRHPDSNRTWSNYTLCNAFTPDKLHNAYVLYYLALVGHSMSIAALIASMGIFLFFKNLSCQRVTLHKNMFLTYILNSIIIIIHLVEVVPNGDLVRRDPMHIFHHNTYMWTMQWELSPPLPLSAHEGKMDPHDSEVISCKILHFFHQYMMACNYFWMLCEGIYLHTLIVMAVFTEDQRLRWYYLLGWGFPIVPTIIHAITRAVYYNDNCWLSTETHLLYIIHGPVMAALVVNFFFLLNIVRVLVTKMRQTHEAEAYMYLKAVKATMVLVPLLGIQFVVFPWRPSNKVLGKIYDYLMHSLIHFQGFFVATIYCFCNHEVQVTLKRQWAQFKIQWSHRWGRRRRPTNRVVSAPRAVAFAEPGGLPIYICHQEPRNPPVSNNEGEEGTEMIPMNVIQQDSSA
T3 chain 2: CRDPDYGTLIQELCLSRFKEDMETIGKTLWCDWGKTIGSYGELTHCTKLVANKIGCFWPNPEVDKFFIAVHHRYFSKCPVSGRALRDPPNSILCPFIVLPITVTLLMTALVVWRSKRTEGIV
Nature of the assay: amylin receptor binding assay.

Assay [5] concerns the target amylin receptors (rat nucleus accumbens membranes) (rat). Nature of the assay: 125I-amylin displacement, rat nucleus accumbens membranes.

calcitonin receptor, sequence (P30988 whole entry): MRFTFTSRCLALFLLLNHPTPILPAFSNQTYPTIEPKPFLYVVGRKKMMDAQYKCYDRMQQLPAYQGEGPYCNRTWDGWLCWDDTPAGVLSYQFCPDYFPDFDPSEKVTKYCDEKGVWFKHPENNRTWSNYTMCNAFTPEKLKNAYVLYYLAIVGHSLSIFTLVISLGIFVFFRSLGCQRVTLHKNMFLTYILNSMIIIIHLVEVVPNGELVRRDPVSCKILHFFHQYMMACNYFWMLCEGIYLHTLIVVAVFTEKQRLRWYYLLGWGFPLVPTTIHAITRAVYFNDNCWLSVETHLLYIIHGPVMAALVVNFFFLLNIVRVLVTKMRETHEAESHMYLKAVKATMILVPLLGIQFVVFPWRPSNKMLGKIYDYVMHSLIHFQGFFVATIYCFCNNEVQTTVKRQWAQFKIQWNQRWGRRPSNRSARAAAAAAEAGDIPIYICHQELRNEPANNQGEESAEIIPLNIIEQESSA

B1: [#Suc-(bAla)-PYY-(3-36), amide] [#NH-Des-Lys1-Rat Amylin, amide] (peptide)
chain 1: not shown
chain 2: CNTATCATQRLANFLVRSSNNLGPVLPPTNVGSNTY
modifications: not checked
For the molecule B1, the Receptor Activation: CT cyclase with calcitonin receptor was 645. The molecule further displayed a Receptor Binding in assay [1] of 0.39.

DFMGWMDFGKRKCNTATCATQRLANELVRLQTYPRTNVGSNTY (modifications not checked) [27(p-CH2SO3)-PheCCK8(26-33),G,K,R,15Glu,hAmy(1-17),18Arg,Sct(18-26),hAmy(32-37)] returned a Receptor Activation: GLP-1/GIP/CT cyclase in assay [2] of 1000. Further, the Receptor Binding in assay [3] came to 4.4.

The molecule DFMGWMDFGKRKCNTATCATQRLANELVRLQTYPRTNVGSNTY (modifications not checked) [DF(P-CH2SO3)… …] yielded an IC50 in assay [4] of 0.083 nM.

B2: [#Mal-Bu-(bAla)-PYY-(3-36), amide] [#S-Prp-(bAla)-Compound 10, amide] (peptide)
chain 1: not shown
chain 2: […]
modifications: not checked
B2 had a Receptor Binding in assay [1] of 0.2.

On to KCNTATCATQRLANFLVRSSNNLGPVLPPTNVGSNTY (modifications not checked) [Rat amylin], for which the Receptor Activation: GLP-1/GIP/CT cyclase in assay [2] turned out to be 5. For the same molecule, the Receptor Activation: CT cyclase with calcitonin receptor was determined as 326. For the same molecule, the values for the Receptor Binding in assay [3] and in assay [5] were 21 and 0.05, respectively.
